{"source": "paper PMC11005723", "about": "“Development of Complementary Photo‐arginine/lysine to Promote Discovery of Arg/Lys hPTMs Interactomes” (Advanced Science, 2024)", "test_in_all_cases": "ITC; 25 °C, MicroCal PEAQ-ITC; protein in the cell titrated with 19 injections of peptide", "details_in_all_cases": "both partners purified", "key": {"[1]": {"target": "T1, PHD domain of UHRF1 (UHRF1PHD) (structural Zn2+ ions bound; limits are not given, so they follow the usual UHRF1 PHD structural constructs (about 298-366), which include the N-terminal pre-PHD zinc site; the UniProt PHD-type featu)", "T1 chain": "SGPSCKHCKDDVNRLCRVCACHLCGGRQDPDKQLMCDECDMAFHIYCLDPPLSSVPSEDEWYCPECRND"}, "RBBP4 (1‐ 425)": {"target": "T2, RBBP4 (1‐ 425) (UniProt Q09028 1-425)", "T2 construct": "RBBP4 residues 1-425; source: Sf9 (baculovirus), purified (Ni-NTA, Resource Q, Superdex 75)", "T2 sequence (Q09028 whole entry, the tested form may be a part)": "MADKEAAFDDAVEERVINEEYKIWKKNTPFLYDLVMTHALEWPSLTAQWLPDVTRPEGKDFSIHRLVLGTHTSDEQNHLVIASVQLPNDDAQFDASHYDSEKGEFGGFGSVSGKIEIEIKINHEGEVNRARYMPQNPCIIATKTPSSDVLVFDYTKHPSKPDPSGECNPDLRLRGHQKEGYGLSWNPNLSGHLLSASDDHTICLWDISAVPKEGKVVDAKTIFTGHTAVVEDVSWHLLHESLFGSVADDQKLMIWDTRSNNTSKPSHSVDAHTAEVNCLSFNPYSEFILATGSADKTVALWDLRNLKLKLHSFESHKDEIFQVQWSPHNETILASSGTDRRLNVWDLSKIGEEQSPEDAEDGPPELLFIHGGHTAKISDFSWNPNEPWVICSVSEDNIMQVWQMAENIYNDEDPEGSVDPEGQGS"}, "RBBP7 (1‐ 425)": {"target": "T3, RBBP7 (1‐ 425) (UniProt Q16576 1-425)", "T3 construct": "RBBP7 residues 1-425; source: Sf9 (baculovirus), purified (Ni-NTA, Resource Q, Superdex 75)", "T3 sequence (Q16576 whole entry, the tested form may be a part)": "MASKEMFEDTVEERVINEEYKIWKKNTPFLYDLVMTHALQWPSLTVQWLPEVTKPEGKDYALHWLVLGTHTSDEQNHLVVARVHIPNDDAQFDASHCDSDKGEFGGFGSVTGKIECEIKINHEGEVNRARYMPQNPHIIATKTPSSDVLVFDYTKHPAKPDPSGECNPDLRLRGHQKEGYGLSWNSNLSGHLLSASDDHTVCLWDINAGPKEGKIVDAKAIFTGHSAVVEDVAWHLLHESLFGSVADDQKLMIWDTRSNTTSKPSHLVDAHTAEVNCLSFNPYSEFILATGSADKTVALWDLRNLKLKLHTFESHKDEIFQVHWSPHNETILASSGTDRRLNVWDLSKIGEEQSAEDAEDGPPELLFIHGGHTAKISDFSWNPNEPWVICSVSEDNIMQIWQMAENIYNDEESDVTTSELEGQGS"}}, "note": "Non-standard residues stand in square brackets, D forms with d. No end group written: not given here. Arg(Me2a) = CN(C)C(=N)NCCC[C@H](N)C(=O)O", "data": [{"binder": "ARTKQTARKSTGGKA-NH2 (Rink amide resin was used for all peptides, so the C-terminus is probably an amide; also called native H3_(1‐15) peptide; source: synthetic peptide (Fmoc solid-phase synthesis))", "note": "[native H3R2 peptide (H3_(1‐15) without diazirine and biotin)]", "values": [{"measurement": "Kd", "setting": "[1]", "result": 2300, "unit": "nM"}]}, {"binder": "A[Arg(Me2a)]TKQTARKSTGGKA-NH2 (Rink amide resin was used for all peptides, so the C-terminus is probably an amide; source: synthetic peptide (Fmoc solid-phase synthesis))", "note": "[native H3R2me2a peptide (H3_(1‐15) without diazirine and biotin)]", "values": [{"measurement": "Kd", "setting": "RBBP4 (1‐ 425)", "result": "~1200", "unit": "nM"}, {"measurement": "Kd", "setting": "RBBP7 (1‐ 425)", "result": 15400, "unit": "nM"}]}]}
